Laboratory results published in doi:10.1101/2022.02.13.480237 (bioRxiv, 2022).

Assays:
[1] = target: T1, GST^4CS-RGA recombinant protein (REPRESSOR-OF-ga1-3) (Arabidopsis, UniProt Q9SLH3 1-587); assay: pull-down
T1 sequence (looked up): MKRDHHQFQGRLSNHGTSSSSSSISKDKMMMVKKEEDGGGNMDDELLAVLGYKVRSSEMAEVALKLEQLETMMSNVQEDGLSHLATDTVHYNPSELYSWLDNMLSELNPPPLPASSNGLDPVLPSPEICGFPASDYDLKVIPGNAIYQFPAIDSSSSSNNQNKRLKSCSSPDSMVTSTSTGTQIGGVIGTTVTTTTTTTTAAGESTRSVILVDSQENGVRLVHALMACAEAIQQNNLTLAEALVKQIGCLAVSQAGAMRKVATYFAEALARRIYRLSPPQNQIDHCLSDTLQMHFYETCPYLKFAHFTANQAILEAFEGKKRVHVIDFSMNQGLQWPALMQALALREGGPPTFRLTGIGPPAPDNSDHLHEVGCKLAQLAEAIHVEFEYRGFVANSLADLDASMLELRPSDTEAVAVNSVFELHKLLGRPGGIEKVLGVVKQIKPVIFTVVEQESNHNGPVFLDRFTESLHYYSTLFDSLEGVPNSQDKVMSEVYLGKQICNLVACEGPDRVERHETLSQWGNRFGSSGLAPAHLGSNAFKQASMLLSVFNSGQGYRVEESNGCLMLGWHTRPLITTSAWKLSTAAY

[2] = target: T2, GST^4CS-RGA^C374S recombinant protein (Arabidopsis, UniProt Q9SLH3 1-587, C374S); assay: pull-down
T2 sequence (looked up): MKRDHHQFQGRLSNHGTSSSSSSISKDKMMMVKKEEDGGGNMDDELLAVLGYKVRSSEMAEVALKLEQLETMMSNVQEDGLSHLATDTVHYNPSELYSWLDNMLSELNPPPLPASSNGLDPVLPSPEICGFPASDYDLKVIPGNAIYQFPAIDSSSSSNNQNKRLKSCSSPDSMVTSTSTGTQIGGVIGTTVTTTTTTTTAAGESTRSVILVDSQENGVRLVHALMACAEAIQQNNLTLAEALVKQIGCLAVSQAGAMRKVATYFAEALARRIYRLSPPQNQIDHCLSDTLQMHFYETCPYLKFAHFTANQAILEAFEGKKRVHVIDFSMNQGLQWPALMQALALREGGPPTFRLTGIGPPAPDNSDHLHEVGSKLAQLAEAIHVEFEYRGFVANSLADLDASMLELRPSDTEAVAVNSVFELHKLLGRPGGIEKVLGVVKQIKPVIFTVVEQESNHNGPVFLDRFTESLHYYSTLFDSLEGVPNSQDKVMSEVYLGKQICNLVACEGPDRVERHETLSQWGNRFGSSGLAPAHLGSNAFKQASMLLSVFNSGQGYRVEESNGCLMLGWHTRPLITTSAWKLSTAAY

Binder | binding result [1] | binding result [2]
His-GID1a recombinant protein (GA-… DWARF1a) (receptor, Arabidopsis, UniProt Q9MAA7 1-345, looked up) MAASDEVNLIESRTVVPLNTWVLISNFKVAYNILRRPDGTFNRHLAEYLDRKVTANANPVDGVFSFDVLIDRRINLLSRVYRPAYADQEQPPSILDLEKPVDGDIVPVILFFHGGSFAHSSANSAIYDTLCRRLVGLCKCVVVSVNYRRAPENPYPCAYDDGWIALNWVNSRSWLKSKKDSKVHIFLAGDSSGGNIAHNVALRAGESGIDVLGNILLNPMFGGNERTESEKSLDGKYFVTVRDRDWYWKAFLPEGEDREHPACNPFSPRGKSLEGVSFPKSLVVVAGLDLIRDWQLAYAEGLKKAGQEVKLMHLEKATVGFYLLPNNNHFHNVMDEISAFVNAEC | binds | 
His-GID1c recombinant protein (GA-… DWARF1c) (receptor, Arabidopsis, UniProt Q940G6 1-344, looked up) MAGSEEVNLIESKTVVPLNTWVLISNFKLAYNLLRRPDGTFNRHLAEFLDRKVPANANPVNGVFSFDVIIDRQTNLLSRVYRPADAGTSPSITDLQNPVDGEIVPVIVFFHGGSFAHSSANSAIYDTLCRRLVGLCGAVVVSVNYRRAPENRYPCAYDDGWAVLKWVNSSSWLRSKKDSKVRIFLAGDSSGGNIVHNVAVRAVESRIDVLGNILLNPMFGGTERTESEKRLDGKYFVTVRDRDWYWRAFLPEGEDREHPACSPFGPRSKSLEGLSFPKSLVVVAGLDLIQDWQLKYAEGLKKAGQEVKLLYLEQATIGFYLLPNNNHFHTVMDEIAAFVNAECQ | binds | 
His-SLY1 recombinant protein (F-box protein SLEEPY1) (natural protein, Arabidopsis, UniProt Q9STX3 1-151, looked up) MKRSTTDSDLAGDAHNETNKKMKSTEEEEIGFSNLDENLVYEVLKHVDAKTLAMSSCVSKIWHKTAQDERLWELICTRHWTNIGCGQNQLRSVVLALGGFRRLHSLYLWPLSKPNPRARFGKDELKLTLSLLSIRYYEKMSFTKRPLPESK |  | binds
